Reference: patent publication CN111303279A (INST PATHOGEN BIOLOGY CAMS, dated 2020)

B1: 单域抗体4D8 (VHH)
VHH: QVQLVESGGGLVQPGGSLRLSCAASGNIDSTRYHGWFRQAPGKGLEAVAAIKGVWPEDYYADSVKGRFTISRDNSKNTLYLQMNSLRAEDTAVYYCAADQYEWWVPGEVGPYLYWGQGTQVTVSS
B2: 单域抗体2F2 (VHH)
VHH: QVQLVESGGGLVQPGGSLRLSCAASGLAQSKWAYGWFRQAPGKGLEAVAAIDVATGPWYYADSVKGRFTISRDNSKNTLYLQMNSLRAEDTAVYYCAAHHIPTKHPAFPDFRDYWGQGTQVTVSS
B3: 单域抗体5F8 (VHH)
VHH: QVQLVESGGGLVQPGGSLRLSCAASGRQAVVFGWFRQAPGKGLEAVAAIHVPAKNRYYADSVKGRFTISRDNSKNTLYLQMNSLRAEDTAVYYCAAHYEFNDFVWQGYSSDYWGQGTQVTVSS
B4: 单域抗体1E2 (VHH)
VHH: QVQLVESGGGLVQPGGSLRLSCAASGADAFVIIGGWFRQAPGKGLEAVAAIAWTDQHEYYADSVKGRFTISRDNSKNTLYLQMNSLRAEDTAVYYCAAQDSAYIKSKGSRAYEYWGQGTQVTVSS
B5: 单域抗体3F11 (VHH)
VHH: QVQLVESGGGLVQPGGSLRLSCAASGGNAAERMAGWFRQAPGKGLEAVAAIYYAKFGPYYADSVKGRFTISRDNSKNTLYLQMNSLRAEDTAVYYCAAEAFVQSPYSGSHTTKYWGQGTQVTVSS

Key:
SARS-CoV-2刺突蛋白RBD区重组蛋白 [1] = molecular target: T1, SARS-CoV-2刺突蛋白RBD区重组蛋白 (SARS-CoV-2, UniProt P0DTC2 319-541); experiment: SPR, BIAcore T-200; range told of the group, this end tied to 4D8 by table 1
SARS-CoV-2刺突蛋白RBD区重组蛋白 [2] = molecular target: T1, SARS-CoV-2刺突蛋白RBD区重组蛋白; experiment: SPR, BIAcore T-200, RBD amine-coupled on CM5 chip, VHH in flow
[3] = molecular target: SARS-CoV-2病毒的包膜刺突糖蛋白(即S蛋白) (SARS-CoV-2, UniProt P0DTC2 14-1273); experiment: cell-based or functional assay
SARS-CoV-2刺突蛋白RBD区重组蛋白 [4] = molecular target: T1, SARS-CoV-2刺突蛋白RBD区重组蛋白; experiment: SPR, BIAcore T-200; range told of the group, this end tied to 5F8 by table 1

| Binder | Kd (SARS-CoV-2刺突蛋白RBD区重组蛋白 [1]) | Kd (SARS-CoV-2刺突蛋白RBD区重组蛋白 [2]) | koff (SARS-CoV-2刺突蛋白RBD区重组蛋白 [2]) | kon (SARS-CoV-2刺突蛋白RBD区重组蛋白 [2]) | 抑制SARS-CoV-2假型病毒感染 IC50 (luciferase, Calu-3细胞) [3] | Kd (SARS-CoV-2刺突蛋白RBD区重组蛋白 [4]) |
| --- | --- | --- | --- | --- | --- | --- |
| B1 | 33.9 nM | 34 nM | 0.00613 s⁻¹ | 180000 M⁻¹ s⁻¹ | 0.247 µg/mL |  |
| B2 |  | 0.846 nM | 0.000313 s⁻¹ | 370000 M⁻¹ s⁻¹ | 0.0235 µg/mL |  |
| B3 |  | 0.716 nM | 0.000211 s⁻¹ | 295000 M⁻¹ s⁻¹ | 0.00338 µg/mL | 0.71 nM |
| B4 |  | 21.1 nM | 0.00518 s⁻¹ | 245000 M⁻¹ s⁻¹ | 0.31 µg/mL |  |
| B5 |  | 3.15 nM | 0.00675 s⁻¹ | 2.14e+06 M⁻¹ s⁻¹ | 0.0038 µg/mL |  |
